Molecular target: L. pneumophila CdgS9 periplasmic output domain (CdgS9^Output, residues 22-152) (L. pneumophila)
Assay: […]; 25 mM Tris-HCl pH 7.4, 100 mM NaCl, 25°C; […]

Substance | stoichiometry N | stoichiometry N (CdgS9^Output chains per LapG (2:1))
L. pneumophila CdgS9 periplasmic output domain (CdgS9^Output, residues 22-152) (domain or fragment) | 2 | 
L. pneumophila LapG (enzyme) |  | 2
